This is an account of results in patent US20170275356A1 (Eli Lilly, published 2017).

“And” between values parts separate entries of the source, which are not always exact repeats. Equal entries are not always repeated.

Usually Kd stands for the constant that tells how readily two partners part at equilibrium. For orientation: koff means the first-order rate constant of dissociation. As a reminder, the kon is the second-order rate constant of association.

The target in assay [1] is cynomolgus monkey IL-23 (cynomolgus monkey). Description: cell-based or functional assay.
Assay [2] has as its target T1, human IL-23 (human, UniProt P29460 23-328).
T1 sequence 1: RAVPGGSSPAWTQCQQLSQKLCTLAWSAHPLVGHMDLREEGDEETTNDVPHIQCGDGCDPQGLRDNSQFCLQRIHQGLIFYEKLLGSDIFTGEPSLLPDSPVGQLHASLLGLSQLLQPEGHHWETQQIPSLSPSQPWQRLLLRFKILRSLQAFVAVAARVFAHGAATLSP
T1 sequence 2: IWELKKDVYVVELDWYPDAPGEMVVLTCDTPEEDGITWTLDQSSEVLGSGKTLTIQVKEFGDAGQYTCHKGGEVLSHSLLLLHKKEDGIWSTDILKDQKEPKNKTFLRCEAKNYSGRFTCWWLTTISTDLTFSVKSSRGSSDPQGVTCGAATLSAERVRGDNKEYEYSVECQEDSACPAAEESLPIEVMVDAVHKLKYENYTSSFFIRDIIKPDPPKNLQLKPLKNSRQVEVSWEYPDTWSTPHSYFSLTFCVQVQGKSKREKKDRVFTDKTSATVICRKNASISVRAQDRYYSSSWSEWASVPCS
Description: cell-based or functional assay.

Assay [3] addresses T1, human IL-23. Description: cell-based or functional assay. The source holds these as a separate data set.
Assay [4] addresses T2, cynomolgus monkey IL-23 (cynomolgus monkey).
T2 construct: Construct not described
The assay can be described thus: SPR (BIAcore 2000), Antibody I captured on Protein A, IL-23 injected, 37 °C, n=2. The procedure:
(§1) Antibody affinity (KD) to human, cynomolgus monkey or rabbit IL-23 is determined using a BIAcore Biosensor 2000 and BIAevaluation software with a 1:1 binding with mass transfer model. A capture protein (Protein A, Calbiochem) is coupled via free amine groups to carboxyl groups on flow cells 1 and 2 of a CM4 biosensor chip using a mixture of N-ethyl-N-(dimethylaminopropyl)-carbodiimide (EDC) and N-hydroxysuccinimide (NHS). Flow cells are monitored with a flow rate of 80 μL/minute using a buffer containing 0.01 M HEPES, pH 7.4, 150 mM NaCl, 0.005% surfactant P20. Antibody I is captured on flow cell 2 to yield a total of 40 to 60 response units (RU). Multiple cycles of increasing concentrations of IL-23 are then injected over flow cells 1 and 2 (0.62 nM to 30 nM for human and monkey IL-23 and 30 nM to 240 nM for rabbit IL-23) followed by a regeneration step using glycine-HCl (pH 1.5) between each cycle. Flow cell 1 is used as a control to monitor non-specific binding of IL-23 and the data reflects flow cell 2 minus flow cell 1. Each cycle includes an antibody capture step followed by injection of IL-23 at one concentration with a 30 minute dissociation period, then regeneration. Two cycles where buffer is injected in place of IL-23, serve as a control for baseline subtraction and correct for drift associated with the dissociation of Antibody I from the protein A surface. Affinity is measured at 37 ° C. The assay is performed 2 times with human, monkey or rabbit IL-23. Antibody I is tested 2 times each with mouse IL-23 at 333 nM, rat IL-23 at 200 nM, human IL-12 at 333 nM, human IL-27 at 500 nM or human IL-35 at 833 nM.
(§2) The on-rate (kₒₙ) and off-rate (koff) for each antigen are evaluated using a 1:1 binding with mass transfer model. The affinity (KD) is calculated from the binding kinetics according to the relationship: KD=koff/kₒₙ.
In general terms: SPR reads the build-up and loss of mass on a sensor chip optically.

The target of assay [5] is T1, human IL-23. The assay is described as above. The procedure:
as §1, §2

Another assay deals with T3, rabbit IL-23 (rabbit).
T3 construct: Construct not described
The assay is described as above. The procedure: as §1, §2

For a further assay, the target named is T4, human IL-35 (human, UniProt P29459 23-219; Q14213 21-229, limits assumed).
T4 construct: subunit make-up is from general knowledge
T4 sequence (looked up) 1: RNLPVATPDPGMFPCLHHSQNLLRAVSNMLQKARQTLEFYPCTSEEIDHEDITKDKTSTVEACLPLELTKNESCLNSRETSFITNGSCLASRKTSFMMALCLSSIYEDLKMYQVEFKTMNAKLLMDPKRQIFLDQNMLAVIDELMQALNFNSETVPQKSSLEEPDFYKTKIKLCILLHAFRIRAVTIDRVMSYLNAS
T4 sequence (looked up) 2: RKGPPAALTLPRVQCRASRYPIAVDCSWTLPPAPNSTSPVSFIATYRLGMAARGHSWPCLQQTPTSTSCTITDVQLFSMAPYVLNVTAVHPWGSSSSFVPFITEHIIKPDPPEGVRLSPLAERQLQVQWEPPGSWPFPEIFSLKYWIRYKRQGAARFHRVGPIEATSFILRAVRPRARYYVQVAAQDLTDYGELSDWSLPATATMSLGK
The assay can be described thus: SPR (BIAcore), Antibody I captured on Protein A, 37 °C. Here is the method:
as §1
(§3) Antibody I produces a concentration-dependent binding response with human, cynomolgus monkey, and rabbit IL-23 using this method. Saturation of binding of IL-23 is attained at a concentration of 30 nM (human and monkey) and 240 nM (rabbit) using […] of Antibody I captured on the chip surface.

The next assay addresses T5, mouse IL-23 (mouse, UniProt Q9EQ14 22-196; P43432 23-335).
T5 construct: Construct not described
T5 sequence (looked up) 1: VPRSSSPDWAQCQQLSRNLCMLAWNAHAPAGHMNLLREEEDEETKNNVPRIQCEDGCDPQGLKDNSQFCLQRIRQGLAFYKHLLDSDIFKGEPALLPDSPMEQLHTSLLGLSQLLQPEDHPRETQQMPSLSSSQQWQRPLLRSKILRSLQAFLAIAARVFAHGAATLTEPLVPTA
T5 sequence (looked up) 2: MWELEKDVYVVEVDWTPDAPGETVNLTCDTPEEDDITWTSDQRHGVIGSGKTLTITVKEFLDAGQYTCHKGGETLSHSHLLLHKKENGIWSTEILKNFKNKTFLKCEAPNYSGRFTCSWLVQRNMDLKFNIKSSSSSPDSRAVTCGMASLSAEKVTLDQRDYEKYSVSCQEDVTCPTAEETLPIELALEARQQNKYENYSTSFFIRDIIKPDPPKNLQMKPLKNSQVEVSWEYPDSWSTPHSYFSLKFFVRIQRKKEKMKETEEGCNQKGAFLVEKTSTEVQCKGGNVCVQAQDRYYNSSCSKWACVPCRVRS
Described as above. The procedure: as §1, §3

In a further assay the target is T6, human IL-12 (human, UniProt P29459 23-219; P29460 23-328).
T6 construct: construct not described
T6 sequence (looked up) 1: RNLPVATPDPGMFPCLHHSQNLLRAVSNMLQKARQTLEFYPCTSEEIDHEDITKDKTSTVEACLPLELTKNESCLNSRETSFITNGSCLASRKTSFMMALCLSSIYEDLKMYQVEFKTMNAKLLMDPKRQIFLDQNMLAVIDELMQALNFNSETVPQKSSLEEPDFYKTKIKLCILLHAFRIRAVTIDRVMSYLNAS
T6 sequence (looked up) 2: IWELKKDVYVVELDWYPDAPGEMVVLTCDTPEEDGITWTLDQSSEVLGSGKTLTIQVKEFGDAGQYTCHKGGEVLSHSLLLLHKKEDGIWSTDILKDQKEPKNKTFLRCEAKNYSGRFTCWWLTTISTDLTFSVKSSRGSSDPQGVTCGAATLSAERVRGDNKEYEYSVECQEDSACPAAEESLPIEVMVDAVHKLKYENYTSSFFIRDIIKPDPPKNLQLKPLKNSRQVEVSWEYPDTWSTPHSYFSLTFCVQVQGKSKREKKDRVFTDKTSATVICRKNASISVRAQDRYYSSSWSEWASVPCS
The description is as above. The procedure:
as §1, §3

The target of a further assay is T7, human IL-27 (human, UniProt Q8NEV9 29-243; Q14213 21-229).
T7 construct: subunit make-up is from general knowledge
T7 sequence (looked up) 1: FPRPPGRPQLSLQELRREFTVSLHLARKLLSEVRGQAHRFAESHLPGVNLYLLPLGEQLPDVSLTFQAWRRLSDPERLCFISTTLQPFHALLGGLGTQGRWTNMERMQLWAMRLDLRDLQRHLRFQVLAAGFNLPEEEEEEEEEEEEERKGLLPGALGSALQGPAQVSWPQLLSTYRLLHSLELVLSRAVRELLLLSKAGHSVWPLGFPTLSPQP
T7 sequence (looked up) 2: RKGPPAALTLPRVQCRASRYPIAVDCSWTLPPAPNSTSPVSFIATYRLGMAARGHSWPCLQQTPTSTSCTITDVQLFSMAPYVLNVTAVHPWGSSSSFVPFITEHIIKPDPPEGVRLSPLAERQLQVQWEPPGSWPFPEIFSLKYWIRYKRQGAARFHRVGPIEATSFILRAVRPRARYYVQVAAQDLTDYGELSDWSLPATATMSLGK
The description is as above. Here is the method: as §1, §3

B1: Antibody I (antibody, human IgG4 S228P, kappa, F234A L235A, V domains shown)
VH: QVQLVQSGAEVKKPGSSVKVSCKASGYKFTRYVMHWVRQAPGQGLEWMGYINPYNDGTNYNEKFKGRVTITADKSTSTAYMELSSLRSEDTAVYYCARNWDTGLWGQGTTVTVSS
VL: DIQMTQSPSSLSASVGDRVTITCKASDHILKFLTWYQQKPGKAPKLLIYGATSLETGVPSRFSGSGSGTDFTLTISSLQPEDFATYYCQMYWSTPFTFGGGTKVEIKR
notes: also called IL-23 Antibody
Consider B1, for which the “IC50 (pM), in vitro IL-23 neutralization assay, IL-17 production by murine splenocytes” value with cynomolgus monkey IL-23 [1] was 110 pM and 130 pM; with human IL-23 [2], 90 pM and 74 pM. Moreover, in the assay with human IL-23 [3], the “fold induction of murine keratin-16 after human IL-23 injection” value turned out to be 1.23 fold induction. The dissociation constant Kd turned out to be 0.055 nM with cynomolgus monkey IL-23 [4], 0.021 nM with human IL-23 [5] and 53 nM with rabbit IL-23. The koff stood at 7e-05 s⁻¹ with cynomolgus monkey IL-23 [4], 5.2e-05 s⁻¹ in the assay with human IL-23 [5] and 0.00479 s⁻¹ in the assay with rabbit IL-23. Besides, the kon came to 1.28e+06 M⁻¹ s⁻¹ with cynomolgus monkey IL-23 [4], 2.43e+06 M⁻¹ s⁻¹ with human IL-23 [5] and 90000 M⁻¹ s⁻¹ with rabbit IL-23. Further, the binding result in the assay with human IL-35 is “no binding (tested: 833 nM)”; in the assay with mouse IL-23, “no binding (tested: 333 nM)”; with human IL-12 it was “no binding (tested: 333 nM)”; with human IL-27, “no binding (tested: 500 nM)”.
